Test results taken from the RNAGym collection of RNA variant scans (doi:10.7554/elife.80360).

B1: HDV Ribozyme (parent)
chain: GGCCGGCAUGGUCCCAGCCUCCUCGCUGGCGCCGGCUGGGCAACAUUCCGAGGGGACCGUCCCCUCGGUAAUGGCGAAUGGGACCCA

Variants of: B1
Experiment: self-cleavage, relative activity (ratio to wild type); higher = more cleavage; co-transcriptional

Point of comparison: GGCCGGCAUGGUCCCAGCCUCCUCGCUGGCGCCGGCUGGGCAACAUUCCGAGGGGACCGUCCCGUCGGUAAUGGCGAAUGGGACUCA, self-cleavage 1.17. Against it:
- GUCCGGCAUGGUCCCAGCCUCCUCGCUCGCGCCGGCUGGGCAACAUUCCGAGGGGACCGUCCCCUCGGUAAUGGCGAAUGGGACCCA — lower, 0.0234
- GGCCGGCAUGGUCCCAGCCUCCUCGCUGGCGCCGGCUGCGCAACAUUCCGAGGGGACCGUCCCCUCGGUAAUGGCGAAUGGGAUCCA — lower, 0.196
- GGCCGGCAUGGUCCCAGCCUCAUCGCUGGCGCCGGCUGGGCAACGUUCCGAGGGGACCGUCCCCUCGGUAAUGGCGAAUGGGACCCA — lower, 0.225
- GGCCGGCAUGGUCCUAGCCUCCUCGCUGGCGCCGGCUGGGCAACAUCCCGAGGGGACCGUCCCCUCGGUAAUGGCGAAUGGGACCCA — lower, 0.779
- GGCCGGCAUGGUCCCAGCCUCCUCGCUGGCGCCGGCUGGGCAACAUUCCGAGGGGACCGUCCCCUCGGUACUGGCGCAUGGGACCCA — lower, 0.0978
- GGCCGGCAUGGUCCCAGCCUACUCGCUGGCGCCGGCUGGGCAACAUUCCGAGGGGACCGUCCCCUCGGUAAUGGCGAAUGGGACCCG — lower, 0.0496
- GGCCGGCAUGGUCCCAGCCUCCUCGCUGGCGCCGGCUGGGCAAGAUUCCGAGGGGACCGUCCCCUCGCUAAUGGCGAAUGGGACCCA — lower, 0.475
- GGCCGGCAUGGUCCCAGCCUCCUCGCUGGCGCCGGCUGGGCAACAUUCCGAGGGGACCGUCCUCUCGGAAAUGGCGAAUGGGACCCA — lower, 0.975
- GGCCUGCAUGGUCCCAGCCUCCUCGCUGGCGCCGGCUGGGCAACAUUCCGAGGGGACCGUCGCCUCGGUAAUGGCGAAUGGGACCCA — lower, 0.346
- GGCCGGCAUGGUCCCAGCCUCCUCGCUGGCGCCGGCUGGGCAACAUUCCGAGGGGACCGUCCCCUCGGUAAUGGCGAAUGGGACGCU — lower, 0.785
- GGCCGGCAUGGUCCCCGCCUCCUCGCUGGCGCCGGCUGGGCAACAUUCCGAGGGGACCGUCCACUCGGUAAUGGCGAAUGGGACCCA — lower, 0.942
- GGCCGGCAUGGUCCCAGCCUCCUCGCUGGCGCCGGCUGGGCAACAUUCCGAGGGGACCUUCCCCUCGGUAAUGGAGAAUGGGACCCA — lower, 0.0314
- GGCCGGCAUGGUCUCAGCCUCCUCGCUGGCGCCGGCUGGGCAACAUUCCGAGGUGACCGUCCCCUCGGUAAUGGCGAAUGGGACCCA — higher, 1.23
- GGCCGACAUGGUCCCAGCCUCCUCGCUGGCGCCGGCUGGGCAACAUUCCGAGGGGACCGUCCCCUCGGUAAUGGCGAAUGGGACUCA — lower, 0.735
- GGCCGGCAUGGUCCCAGCCUCCUCGCUGGCGCCGGCUGGGCAACAUUCCGAGGGGGCCGUCCCCUCGGUAAUGGCGAAUGGGACCCG — lower, 0.929
- GGCCGGCAUGGUGCCAGCCUCCUCGCUGGCGCCGGCUGGGCAUCAUUCCGAGGGGACCGUCCCCUCGGUAAUGGCGAAUGGGACCCA — lower, 0.0923
- GGCCGGCAUGGUCCCAGCCUCCUCGCUGGCGCCGGCUUGGCAACAUUCCGAGGGGACCGUCCCCUCGGUAAUGGCGACUGGGACCCA — lower, 0.086
- GGCCGGCAUGGUCCCAGCCUCCUCGCUGGCGCCGGCUGGGCAACAUUCCGAGGUGACCGUCCCCUCGGUAAUGGCGAAUGGGAACCA — lower, 0.724
- GGCCGGCAUGGUCCCAGCCUCCUCGCUGGCGCCGGCUGGGCAACAUUCCUAGGGGACCGUCCCCACGGUAAUGGCGAAUGGGACCCA — lower, 0.981
- GGCCGGCAUGGUCCCCGCCUCCUCGCUGGCGCCGGCUGGGCACCAUUCCGAGGGGACCGUCCCCUCGGUAAUGGCGAAUGGGACCCA — lower, 0.415
- GGCCGGCAUGGUCCCAGCCUCCUCGCUGUCGCCGGCUGGGCAACAUUCCGAGGGGACCGUCCCCUCGGUAAUGGCGAAUGGGACCCG — lower, 0.0585
- GGCCGCCAUGGUCCCAGCCUCCUCGCUGGCGCCGGCUGGGCAACAUUCCGAGGGGACCGUCCUCUCGGUAAUGGCGAAUGGGACCCA — lower, 0.348
- GGCCGGCAUGGUUCCAGCCUCCUCGCUGGCGCCGGCUGGGCAACAUUCCGAGGGGACCGUCCCCUCGGUAAUGUCGAAUGGGACCCA — lower, 0.0852
- GGCCGGCAUGGCCCCAGCCUCCUCGCUGGCGCCGGCUGGGCAACAUUCCGAGGAGACCGUCCCCUCGGUAAUGGCGAAUGGGACCCA — lower, 0.862
- GGCCGGCAUGGUCCCAGCCUCAUCGCUGGCGCCGGCUGGGCAACAUUCCGAGGGGACCGUCCCCUCGGCAAUGGCGAAUGGGACCCA — lower, 0.393
- GGCCGGCAUGGUCCCAGCCUCCUCGCUUGCGUCGGCUGGGCAACAUUCCGAGGGGACCGUCCCCUCGGUAAUGGCGAAUGGGACCCA — lower, 0.041
- GGUCGGCAUGGUCCCAGCCUCCUCACUGGCGCCGGCUGGGCAACAUUCCGAGGGGACCGUCCCCUCGGUAAUGGCGAAUGGGACCCA — lower, 0.138
- GGCCGGCAUGGUCCCAGCCUCCUCGCUGGCGCCGGCUGGGCGACAUACCGAGGGGACCGUCCCCUCGGUAAUGGCGAAUGGGACCCA — lower, 0.391
- GGCCGGCAUGGUCCCAGCCUCCUCGCUGGCGCCGGCUGGGCAACAUUGCGAGGGGAGCGUCCCCUCGGUAAUGGCGAAUGGGACCCA — lower, 1.03
- GGCCGGCAUGGUCCCAGCCUCCUCGCUGGCGCCGGCUGGGAAACAUUCCGAGGGGACCGACCCCUCGGUAAUGGCGAAUGGGACCCA — lower, 0.979
- GGCCGGCAUGGUCCCAGCCUCCACGCUGGCGCCGGCUGGGCAACAUACCGAGGGGACCGUCCCCUCGGUAAUGGCGAAUGGGACCCA — lower, 0.877
